Literature values in paper PMC4221657.
pKd: −log10 of the molar value.

Legend:
[1] = target: PAC1 receptor (Homo sapiens) (UniProt P41586)
[2] = target: VPAC1 receptor (Homo sapiens) (UniProt P32241)
[3] = target: VPAC2 receptor (Homo sapiens) (UniProt P41587)
Chain of UniProt P41587 (P41587 24-438): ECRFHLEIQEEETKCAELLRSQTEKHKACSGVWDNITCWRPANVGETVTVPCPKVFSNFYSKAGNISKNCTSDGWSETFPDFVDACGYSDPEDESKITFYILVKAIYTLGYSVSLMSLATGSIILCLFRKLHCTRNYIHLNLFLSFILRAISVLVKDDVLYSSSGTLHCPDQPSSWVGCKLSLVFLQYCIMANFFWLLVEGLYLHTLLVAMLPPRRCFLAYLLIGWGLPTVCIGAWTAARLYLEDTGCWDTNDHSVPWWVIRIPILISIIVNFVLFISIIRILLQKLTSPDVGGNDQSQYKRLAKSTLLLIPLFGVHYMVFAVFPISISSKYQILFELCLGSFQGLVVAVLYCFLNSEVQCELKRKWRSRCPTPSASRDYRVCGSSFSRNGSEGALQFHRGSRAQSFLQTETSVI

Chain of UniProt P32241 (P32241 31-457): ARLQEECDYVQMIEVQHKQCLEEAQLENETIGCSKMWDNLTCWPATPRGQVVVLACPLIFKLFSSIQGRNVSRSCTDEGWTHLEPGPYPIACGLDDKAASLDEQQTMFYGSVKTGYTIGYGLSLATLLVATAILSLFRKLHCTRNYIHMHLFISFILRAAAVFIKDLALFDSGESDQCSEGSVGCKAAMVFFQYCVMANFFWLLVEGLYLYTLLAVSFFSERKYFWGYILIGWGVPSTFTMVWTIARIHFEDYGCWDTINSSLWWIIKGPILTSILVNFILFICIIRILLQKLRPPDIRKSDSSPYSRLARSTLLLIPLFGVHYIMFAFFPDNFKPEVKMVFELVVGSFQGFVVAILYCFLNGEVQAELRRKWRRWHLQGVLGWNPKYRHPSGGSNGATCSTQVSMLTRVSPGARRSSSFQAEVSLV
Chain of UniProt P41586 (P41586 21-468): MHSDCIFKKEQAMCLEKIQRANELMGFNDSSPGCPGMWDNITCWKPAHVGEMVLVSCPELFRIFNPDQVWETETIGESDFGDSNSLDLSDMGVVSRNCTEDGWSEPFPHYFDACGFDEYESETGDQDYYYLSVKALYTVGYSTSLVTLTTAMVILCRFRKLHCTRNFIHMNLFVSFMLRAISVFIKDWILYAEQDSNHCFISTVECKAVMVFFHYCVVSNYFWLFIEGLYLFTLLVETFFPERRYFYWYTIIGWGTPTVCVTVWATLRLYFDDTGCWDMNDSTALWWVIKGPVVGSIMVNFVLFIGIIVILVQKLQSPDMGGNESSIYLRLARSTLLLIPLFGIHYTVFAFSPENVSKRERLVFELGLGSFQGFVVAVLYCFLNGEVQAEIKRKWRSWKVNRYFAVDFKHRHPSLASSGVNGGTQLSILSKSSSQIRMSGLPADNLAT

- pKd [1]: 9.30
- pKd [2]: 9.00
- pKd [3]: 9.00
Substance: PACAP38 (from UniProt P18509)
